Sequences and labels used below:
B1: 26-nt-AAATTAGT (dsDNA)
DNA 1: TGTAAACAGAAATTAGTATCTCTGCC
DNA 2: GGCAGAGATACTAATTTCTGTTTACA
B2: CTGAAAAA probe (il-6, il-1b, ccl9, cnbp) (dsDNA)
DNA 1: CTGAAAAA
DNA 2: TTTTTCAG
B3: AAATTAGA probe (il-6, ccl4) (dsDNA)
DNA 1: AAATTAGA
DNA 2: TCTAATTT
B4: NF-κB probe (dsDNA)
DNA 1: AATGTGGGATTTTCCCATGA
DNA 2: TCATGGGAAAATCCCACATT
B5: 26-nt-CTGAAAAA (dsDNA)
DNA 1: GGAACTAGTCTGAAAAAGAAACTAAC
DNA 2: GTTAGTTTCTTTTTCAGACTAGTTCC
B6: AGTTGAGA probe (ccl4) (dsDNA)
DNA 1: AGTTGAGA
DNA 2: TCTCAACT
B7: AAATTAGT probe (il-12b, ccl5, cnbp) (dsDNA)
DNA 1: AAATTAGT
DNA 2: ACTAATTT
B8: Mut.3 (dsDNA)
DNA 1: AGTTGCCA
DNA 2: TGGCAACT
B9: Mut.6 (dsDNA)
DNA 1: CTGGGGGA
DNA 2: TCCCCCAG
B10: Mut.2 (dsDNA)
DNA 1: AGTGGAGA
DNA 2: TCTCCACT
B11: Mut.5 (dsDNA)
DNA 1: GGGAAAAA
DNA 2: TTTTTCCC

Experimental findings from PMC5389554 are described below.

The target of the first series is T1, GST-CNBP (isoform 1, WT) (mouse, UniProt P53996 1-178). Nature of the series: EMSA. In general terms: In EMSA bound probe runs differently from free probe, usually more slowly.
T1 sequence (P53996 whole entry, canonical isoform): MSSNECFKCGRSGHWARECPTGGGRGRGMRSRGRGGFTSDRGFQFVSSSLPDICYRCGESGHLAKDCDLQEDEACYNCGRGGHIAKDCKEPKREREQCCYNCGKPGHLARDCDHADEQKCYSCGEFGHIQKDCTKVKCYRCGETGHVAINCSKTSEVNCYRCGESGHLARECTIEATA
As for B1, the binding result was “binds”. In the case of B2, the binding result is “binds”. The same measure, in the same setting: the result for GGAGGAGAGAGAGAGAGAGAGAGAGA (mixed) [G-rich 26-nt (strandedness in assay not stated; antisense S140 also listed)] reads “binds”; that for B3, “binds”; that for B4, “no binding”.

Turning to B5, the binding result was “binds”. For the molecule B6, the binding result is “binds”. For B7, the binding result was “binds”. For B8, the binding result was “no binding”. Regarding B9, the binding result is “no binding”.

In a further series the target is GST-CNBP Δ54-178 (CNBP-1-53) (mouse, UniProt P53996 1-53, del54-178). Nature of the series: EMSA.
Sequence of GST-CNBP Δ54-178 (CNBP-1-53) (P53996 1-53, stated change not applied): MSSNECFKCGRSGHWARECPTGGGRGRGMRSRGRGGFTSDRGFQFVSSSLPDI
Regarding B2, the binding result is “binds”.

The next series has as its target T1, GST-CNBP (isoform 1, WT). Nature of the series: EMSA. This is another data set of the same source.
In the case of B10, the binding signal was > 1 fold of AGTTGAGA.

The target of a further series is T1, GST-CNBP (isoform 1, WT). Nature of the series: EMSA. This is another data set of the same source.
Regarding B11, the binding signal is > 1 fold of CTGAAAAA.
